Data taken from patent US10100120B2, “Antibody which specifically binds to human CRTH2” (KYOWA HAKKO KIRIN CO., LTD, priority 2015, dated 2018).

Molecular target: T1, human CRTH2 (Homo sapiens, UniProt Q9Y5Y4)
T1 construct: expressed in transfected cells
T1 sequence (Q9Y5Y4 1-395): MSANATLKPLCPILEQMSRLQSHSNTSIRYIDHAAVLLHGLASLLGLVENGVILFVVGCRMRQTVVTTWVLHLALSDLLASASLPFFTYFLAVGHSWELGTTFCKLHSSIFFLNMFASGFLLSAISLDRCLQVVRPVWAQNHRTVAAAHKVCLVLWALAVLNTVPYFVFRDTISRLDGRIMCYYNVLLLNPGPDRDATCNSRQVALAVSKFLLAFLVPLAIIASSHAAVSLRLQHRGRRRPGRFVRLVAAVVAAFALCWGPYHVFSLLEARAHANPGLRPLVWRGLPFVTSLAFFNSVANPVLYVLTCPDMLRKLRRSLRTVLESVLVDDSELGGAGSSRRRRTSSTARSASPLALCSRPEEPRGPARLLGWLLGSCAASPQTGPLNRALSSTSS
Assay: ELISA reactivity against membrane fractions of human CRTH2-expressing CHO/DG44 cells with GTPγS or GDP treatment
Assay type: binding
Settings: HRP-labeled antibody, FIG. 19
Experimental: Humanized Lym2 antibody LV0HV1 and hu19A2 v52 were directly labeled with HRP using Peroxidase Labeling Kit-NH2 (Dojindo Molecular Technologies, Inc.) according to the attached document and diluted to 1 mg/mL with D-PBS (−) (NACALAI TESQUE, Inc.).
The human CRTH2-expressing CHO/DG44 cells established in Example 1 were peeled using 0.02% EDTA solution (NACALAI TESQUE, Inc.) and the cells were washed with D-PBS (−) cooled to 4° C. The membrane fractions were prepared using Minute Plasma Membrane Protein Isolation Kit (Invent Biotechnologies) according to the attached document.
50 mM Tris-HCl buffer pH 7.4 (NACALAI TESQUE, Inc.) to which 50 mM HEPES (GIBCO Inc.), 5 mM MgCl2 (NACALAI TESQUE, Inc.), 100 mM NaCl (NACALAI TESQUE, Inc.), and 1 mM EDTA (Invitrogen) were added (hereinafter, referred to as an ELISA reaction solution) was added to the membrane fractions prepared in (2) to have a concentration of 1 mg/mL, and the mixture was added to PROTEOSAVE 1.5 mL Microtubes (Sumitomo Bakelite Co., Ltd.) at 50 μL/tube.
Next, an ELISA reaction solution to which 500 μM GTPγS (Roche Diagnostics K.K.) or 500 μM GDP (Sigma-Aldrich Co. LLC) was added was added to the microtubes at 50 μL/tube for incubation at 30° C. for 1 hour. […]
The absorbance at 480 nm was measured by SPECTRA max 340PC and the obtained result was analyzed using Graphpad Prism (ver. 6.05). […]

- reactivity with respect to membrane fractions at GDP treatment compared to GTPγS treatment: not changed
B1: LV0HV1: humanized Lym2 antibody, VL LV0 (SEQ ID NO: 33), VH HV1 (SEQ ID NO: 51) (antibody, V domains shown)
VH: EVQLVESGGGVVQPGRSLRLSCAASGFTFSNYYMAWVRQAPGKGLEWVATISYDGSSTYYRDSVKGRFTISRDNAKNSLYLQMNSLRAEDTATYYCARHRGYYYSGAGYFDYWGQGTMVTVSS
VL: DIVMTQTPLSLPVTPGESASISCRSSQSLEYSDGYTYLEWYLQKPGQSPQVLIYGVSNRFSGVPDRFSGSGSGTDFTLKISRVEAEDVGVYYCFQATHDPLTFGQGTKLEIK
